Experimental findings from patent US20030049255A1 (published 2003) are described below.

The chains are these.
T1: recombinant human IL-1 receptor Accessory Protein (AcP):Fc (human, UniProt Q9NPH3 21-359)
T1 construct: also called human IL-1AcP:Fc; soluble recombinant human IL-1AcP:Fc
T1 sequence: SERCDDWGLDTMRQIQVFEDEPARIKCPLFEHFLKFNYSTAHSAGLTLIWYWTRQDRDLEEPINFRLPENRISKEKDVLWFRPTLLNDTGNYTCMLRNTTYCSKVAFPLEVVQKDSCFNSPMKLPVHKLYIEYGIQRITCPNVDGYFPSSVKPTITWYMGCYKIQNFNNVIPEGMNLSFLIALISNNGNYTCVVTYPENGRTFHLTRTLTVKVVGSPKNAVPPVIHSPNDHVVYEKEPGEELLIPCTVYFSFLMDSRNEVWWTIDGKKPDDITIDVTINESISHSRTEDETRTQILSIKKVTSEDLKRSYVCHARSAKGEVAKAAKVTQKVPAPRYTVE

B1: cynomolgus IL-1ra (ligand, cynomolgus macaque, UniProt Q866R8 26-177, looked up)
chain: RPSGRKPSKMQAFRIWDVNQKTFYLRNNQLVAGYLQGPNVNLEEKIDVVPIEPHALFLGIHGGKMCLSCVKSGDETRLQLEAVNITDLSKNRKQDKRFAFVRSDSGPTTSFESAACPGWFLCTAMEADQPVSLTNMPDKGVMVTKFYFQEDE
notes: also called cynomolgus macaque IL-1 receptor antagonist
B2: recombinant human type II IL-1R:Fc (Fc fusion)
chain: FTLQPAAHTGAARSCRFRGRHYKREFRLEGEPVALRCPQVPYWLWASVSPRINLTWHKNDSARTVPGEEETRMWAQDGALWLLPALQEDSGTYVCTTRNASYCDKMSIELRVFENTDAFLPFISYPQILTLSTSGVLVCPDLSEFTRDKTDVKIQWYKDSLLLDKDNEKFLSVRGTTHLLVHDVALEDAGYYRCVLTFAHEGQQYNITRSIELRIKKKKEETIPVIISPLKTISASLGSRLTIPCKVFLGTGTPLTTMLWWTANDTHIESAYPGGRVTEGPRQEYSENNENYIEVPLIFDPVTREDLHMDFKCVVHNTLSFQTLRTTVKE
notes: also called human IL-1RII:Fc; soluble recombinant human type II IL 1R:Fc; not shown: Fc portion of human IgG
B3: cynomolgus IL-1α (ligand, cynomolgus macaque, UniProt P79340 113-271, looked up)
chain: SAPFSFLSNMTYHFIRIIKHEFILNDTLNQTIIRANDQYLTAAAIHNLDEAVKFDMGAYTSSKDDTKVPVILRISKTQLYVSAQDEDQPVLLKEMPEIPKTITGSETNFLFFWETHGTKNYFISVAHPNLFIATKHDNWVCLAKGLPSITDFQILENQA
notes: also called cynomolgus macaque IL-1α
B4: human IL-1α (ligand, UniProt P01583 113-271, looked up)
chain: SAPFSFLSNVKYNFMRIIKYEFILNDALNQSIIRANDQYLTAAALHNLDEAVKFDMGAYKSSKDDAKITVILRISKTQLYVTAQDEDQPVLLKEMPEIPKTITGSETNLLFFWETHGTKNYFTSVAHPNLFIATKQDYWVCLAGGPPSITDFQILENQA
notes: also called IL-1 alpha

The target in experiment [1] is cynomolgus IL-1β (cynomolgus macaque) (UniProt P79182). The experiment is described as follows: SPR, BIACORE 3000, both Fc fusions captured, ligand in flow. (Surface plasmon resonance follows binding to a sensor surface in real time, without labels.)
Sequence of cynomolgus IL-1β (cynomolgus macaque) (P79182 117-268 limits assumed): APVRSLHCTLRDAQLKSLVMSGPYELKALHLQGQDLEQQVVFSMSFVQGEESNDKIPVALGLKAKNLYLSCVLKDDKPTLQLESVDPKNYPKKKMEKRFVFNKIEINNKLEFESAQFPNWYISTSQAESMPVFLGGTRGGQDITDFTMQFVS
The target in experiment [2] is recombinant rhesus IL-1α (rhesus) (UniProt P48089). The experiment is described as follows: cell-based or functional assay.
In experiment [3] the target is recombinant rhesus IL-1β (rhesus) (UniProt P48090). The experiment is described as follows: cell-based or functional assay.
Sequence of recombinant rhesus IL-1β (rhesus) (P48090 117-269 limits assumed): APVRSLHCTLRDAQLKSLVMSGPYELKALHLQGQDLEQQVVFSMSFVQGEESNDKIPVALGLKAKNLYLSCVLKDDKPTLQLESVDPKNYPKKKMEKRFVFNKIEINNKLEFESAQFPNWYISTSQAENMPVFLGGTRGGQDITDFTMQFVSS
Experiment [4] deals with B2. The experiment is described as follows: SPR, BIACORE 3000, receptor:Fc captured, ligand in flow, without cynomolgus IL-1AcP.
For the experiment “human IL-1α”, the target named is B4. The experiment is described as follows: SPR, BIACORE 3000, receptor:Fc captured on anti-human IgG Fc, ligand in flow, 25 C, without IL-1AcP. How it is done:
(§1) The relative ability of purified soluble type II IL-1R to bind IL-1α, IL-1β and IL-1ra was measured using a BIACORE 3000 instrument with a research grade CM5 sensor chip at 25 degrees C. Soluble recombinant human type II IL-1R was fused to the Fc portion of human IgG so that the resulting type II IL-1R:Fc construct could be bound to a goat anti-human IgG, Fc chain-specific antibody immobilized to the chip using standard amine coupling chemistry. A similar construct was made using IL-1AcP for the same reason. When IL-1AcP:Fc was used in combination with type II IL-1R:Fc, it was mixed in a 1:1 molar ratio before injection into the BIACORE 3000. Kinetic data were obtained by running a range of concentrations of IL-1α, IL-1β, and IL-1 ra over a flow cell that contained receptor bound to immobilized antibody, and a reference cell of immobilized antibody alone. […] In the presence of human IL-1AcP:Fc, the apparent equilibrium binding constants of human type II IL-1R:Fc for human IL-1α and IL-1β were increased >100-fold over those measured in the absence of human IL-1AcP. Human IL-1AcP:Fc slowed the dissociation rates of both ligands by 100-fold. In contrast, human IL-1AcP:Fc had little effect on the affinity of human IL-1RII:Fc for human IL-1ra. In the absence of receptor, no binding of human IL-1α, IL-1β, and IL-1ra to human IL-1AcP:Fc was detected.

Experiment [5] addresses T1, recombinant human IL-1 receptor …. The experiment is described as follows: SPR, BIACORE 3000, Fc fusion captured on anti-human IgG Fc, ligand in flow. How it is done: as §1

On to “human type II IL-1R:Fc in the presence of cynomolgus IL-1AcP:Fc (from UniProt A0A7N9CMI5 18-336)”, for which, in experiment [1], the Ka was 1.8e+08 M⁻¹ and the fold increase of apparent affinity over that without IL-1AcP is more than 100 fold.

Turning to “soluble IL-1R Type II in the presence of IL-1RAcP (from UniProt P27930 14-343; Q9NPH3 21-367)”, the NF-κB luciferase reporter activity in COS7 cells in experiment [2] came to 25 times; in experiment [3], 25 fold.

Consider B1, for which, in experiment [4], the Ka turned out to be 6.2e+07 M⁻¹.

For B2, the “fold lower affinity than for human IL-1β” value with human IL-1α was found to be 100 fold.

On to B3, for which the Ka in experiment [4] came to 1.4e+06 M⁻¹.

As for B4, the binding result in experiment [5] is “no binding”.
